This experiment concerns the target SARS-CoV-2 Wuhan-Hu-1 spike, soluble trimeric, residues 1-1204, 6 proline mutations (SARS-CoV-2) (UniProt P0DTC2). Nature of the experiment: SEC. (SEC sorts molecules by how far they enter the pores of the column.)

The stoichiometry N is a count of units in the complex or per binding partner. Consider “SARS-CoV-2 Wuhan-Hu-1 spike, soluble trimeric, residues 1-1204, 6 proline mutations (from UniProt P0DTC2 14-1204) (domain or fragment)”, for which the stoichiometry N is 3.
